Results from patent US20160024208A1 (Regeneron, published 2016).
Numbering of substitutions follows the chain as printed. Ends that are not written are not given here. * marks the point of attachment. Biotin = O=C1N[C@H]2[C@H](CS[C@H]2CCCCC(=O)*)N1

Experiments:
[1] = target: T1, N-term Biotin Nav1.7 (3-3) peptide, mouse (mouse, N-terminal biotin attached via a G4S linker); test: ELISA on coated peptide
T1 construct: ELISA peptide
T1 peptide: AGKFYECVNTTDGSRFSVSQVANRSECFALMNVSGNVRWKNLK
Method: (§1) Anti-Naᵥ 1.7 antibodies were tested for their ability to bind to the Naᵥ 1.7 peptides. The various peptides were coated overnight onto 96-well Nunc Immunosorp plates at a concentration of 4 μg/mL in PBS, followed by blocking for 1 hour in a suitable blocking agent. For biotinylated peptides, avidin was first coated on Nunc Immunosorp plates at 2 μg/mL in PBS overnight, followed by blocking as described, and the plate was then coated with biotinylated peptides at a concentration of 0.4 μg/mL and incubated for 1 hour at room temperature. Purified anti-Naᵥ 1.7 antibodies were diluted to a final concentration of 0.1 μg/mL and 1.0 μg/mL and added to the wells of the coated microtiter plates followed by incubation for 1 hour at room temperature. Bound antibodies were detected with horseradish peroxidase (HRP) conjugated anti-mouse or anti-human IgG (Jackson Immuno Research Lab, West Grove, Pa.) depending on the antibody species and developed by colorimetric response using tetramethylbenzidine (TMB) substrate (BD Biosciences). Absorbance was read at OD₄₅₀ on a plate reader for 0.1 second.
(§2) Values in Table 11 represent absolute binding ranges (at OD450) to plate-coated peptides for antibodies added at 1 μg/ml as follows: OD450<0.2: −; 0.2<OD450<1: +; 1<OD450<2: ++; 2<OD450<4: +++; NT: Not Tested.

[2] = target: T2, N-Term Biotin-Nav1.7 (3-3) peptide, human (same sequence of EC3-3 for mulatta) (human (same sequence of EC3-3 for …, not fully specified; N-terminal biotin attached via a G4S linker); test: ELISA on coated peptide, antibody 1 ug/ml, OD450 grade; Monkey column
T2 construct: ELISA peptide
T2 peptide: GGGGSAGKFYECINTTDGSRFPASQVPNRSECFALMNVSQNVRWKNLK
Method: as §1, §2

[3] = target: T3, Native Nav1.7 (3-3) peptide, rat (rat); test: ELISA on coated peptide, antibody 1 ug/ml, OD450 grade
T3 construct: ELISA peptide
T3 peptide: T1 peptide with S17P, V18T
Procedure, shortened: (§3)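 Peptides coated at 4 μg/mL in PBS, or biotinylated peptides captured at 0.4 μg/mL on avidin (2 μg/mL). Antibodies at 0.1 and 1.0 μg/mL, 1 h at room temperature, detected with HRP anti-mouse or anti-human IgG and TMB at OD450. Scores at 1 μg/ml: <0.2 −; 0.2–1 +; 1–2 ++; 2–4 +++.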

[4] = target: T2, N-Term Biotin-Nav1.7 (3-3) peptide, …; test: ELISA on coated peptide, antibody 1 ug/ml, OD450 grade; Human
Method: as §1, §2

[5] = target: T4, full-length human Nav1.7 fused at its N-terminus to GFP, expressed in HEK293 cells (human, UniProt Q15858 1-1988); test: cell-based or functional assay
[6] = target: T5, Native Nav1.7 (3-1) peptide, rat (rat); test: ELISA on coated peptide, antibody 1 ug/ml, OD450 grade
T5 construct: Synthetic peptide; also called Rat Nav1.7 3-1 native
T5 peptide: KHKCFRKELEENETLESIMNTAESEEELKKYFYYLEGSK
Procedure, shortened: as §3

[7] = target: T6, N-Term Biotin Nav1.7 (3-1) peptide, mulatta (mulatta (monkey), not fully specified; N-terminal biotin attached via a G4S linker); test: as above
T6 construct: Synthetic peptide; also called Mulatta Nav1.7 3-1 N-term biotin; monkey
T6 peptide: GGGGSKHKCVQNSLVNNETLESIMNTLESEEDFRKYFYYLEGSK
Procedure, shortened: as §3

[8] = target: T7, N-Term Biotin-Nav1.7 (3-1) peptide, human (human, not fully specified; N-terminal biotin attached via a G4S linker); test: as above
T7 construct: ELISA peptide
T7 peptide: T6 peptide with V10F, Q11R, V15E
Procedure, shortened: as §3

[9] = target: T8, Native Nav1.7 (3-1) peptide, human (human); test: Biacore (second token of ELISA/Biacore summary)
T8 construct: Synthetic peptide (Celtek), unbiotinylated; also called Human Nav1.7 3-1 native; Nav1.7 3-1 native peptide
T8 peptide: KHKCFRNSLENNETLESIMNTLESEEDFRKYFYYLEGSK

[10] = target: T6, N-Term Biotin Nav1.7 (3-1) peptide, …; test: ELISA on coated peptide
Method: as §1, §2

[11] = target: T8, Native Nav1.7 (3-1) peptide, human; test: SPR, captured antibody, peptide analyte
Procedure, shortened: (§4)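 Biacore SPR: antibody captured via Fc on anti-Fc surface, Nav1.7 loop peptides injected as analyte at several concentrations. Double-referenced sensorgrams globally fitted to a 1:1 model; KD = kd/ka, t1/2 = ln2/kd.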

[12] = target: T6, N-Term Biotin Nav1.7 (3-1) peptide, …; test: SPR, captured antibody, peptide analyte
Procedure, shortened: as §4

[13] = target: T8, Native Nav1.7 (3-1) peptide, human; test: SPR, captured antibody, peptide analyte; IC = binding data could not be fit
Method: The binding affinities of anti-Naᵥ 1.7 antibodies to Naᵥ 1.7 loop peptides were determined by Biacore. For monovalent kinetic experiments, antibodies were captured through the Fc region via a goat anti-Fc-coupled biosensor surface, and the peptides (as analyte) were injected over this captured antibody surface. For bivalent (avidity-driven) kinetic experiments, biotinylated peptides corresponding to the Naᵥ 1.7 3-1, 3-3, or paddle loop sequences were captured on a NeutrAvidin sensor surface, and anti-Naᵥ 1.7 antibodies (as analyte) were injected over this surface. Following the capture step, each analyte was individually injected at several concentrations over its respective capture surface, and changes in bound surface units (RU) were monitored. The dissociation rate is independent of the concentration of analyte used in the experiment, and the dissociation rate constant (kd) was determined from the change in antibody-bound analyte RU over time. The Biacore kinetic data were obtained using a double referencing procedure. […] The KD was calculated as the dissociation rate constant divided by the association rate constant (KD=kd/kₐ). The dissociative half-life (t_{1/2}) was calculated from the dissociation rate constant (t_{1/2}=In2/kd).

[14] = target: T9, C-term Biotin Nav1.7 (3-1) peptide, human (human, not fully specified; C-terminal biotin attached via a G4S linker); test: SPR, captured biotin-peptide, antibody analyte
T9 construct: Synthetic peptide; also called Human Nav1.7 3-1 C-term biotin
T9 peptide: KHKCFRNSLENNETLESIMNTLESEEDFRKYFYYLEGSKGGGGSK

[15] = target: T4, full-length human Nav1.7 fused at its …; test: flow cytometry; % stained hNav1.7-GFP-HEK293 minus parental HEK293
Procedure, shortened: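 Antibody (1-13 nM) incubated 20 min on ice with stably transfected hNav1.7-GFP-HEK293 or parental HEK293 cells in PBS/5% FBS, then 1.7 nM Cy5- or APC-labelled anti-Fc secondary for 20 min on ice. Flow cytometry of live-gated cells; specific binding = % stained transfected minus % stained parental.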

[16] = target: T3, Native Nav1.7 (3-3) peptide, rat; test: ELISA on coated peptide
Method: as §1, §2

[17] = target: T10, N-term Biotin Nav1.7 (Paddle) peptide, human (human, not fully specified); test: ELISA on coated peptide, antibody 1 ug/ml, OD450 grade
T10 construct: ELISA peptide
T10 peptide: Biotin-GGGGSTEFVNLGNVSALRT
Procedure, shortened: as §3

[18] = target: T11, N-Term Biotin Nav1.7 (Paddle) peptide, mulatta (mulatta (monkey), not fully specified); test: as above
T11 construct: ELISA peptide
T11 peptide: Biotin-GGGGSTEFVDLGNVSALRT
Procedure, shortened: as §3

[19] = target: T12, Native Nav1.7 (Paddle) peptide, human (human); test: SPR, captured antibody, peptide analyte
T12 construct: Synthetic peptide, unbiotinylated; also called Human Nav1.7 paddle native
T12 peptide: TEFVNLGNVSALRT
Procedure, shortened: as §4

B1: H4H468B (antibody, V domains shown)
VH: EVQLVQSGGGVVQPGRSLRLSCTASGFTFSVYGIHWVRQAPGKGLEWVAVIWYDGSNKYYTDSVKGRFTISRDNSKNTLYLQMNSLRAEDTALYYCAREGDLSSSSGSGGYHYVVDVWGQGTMVTVSS
VL: DIQMTQSPSSLSASVGDRVTITCRASQDIRNDLGWYQQKPGNAPKLLIYSTSSLQSGVPSRFSGSGSGTDFTLTISSLQPEDFATYYCLQDYNYPLTFGGGTKVEIKR
B1 was tested, and the OD450 [1] was under 0.2 od, the OD450 [2] was 1 to 2 od and the OD450 [3] was 2 to 4 od. The OD450 [4] was 1 to 2 od.

B2: H4H439B (antibody, V domains shown)
VH: QVQLQQWGAGLLKPSETLSLTCAVYGGSFSGHYWSWIRQPPGKGLEWIGEINHRGSTNYNPSLKSRATISVDTSKNQFSLKLSSVTAADTAVYYCAREGSLAARLWFFDLWGRDTLVTVSS
VL: DIQMTQSPSSLSASVGDRGTITCRASQDIRTYLNWYQQKPGKAPKLLIYAASSLQSGVPSRFSGSGSGTDFTLTISSLQPEDFATYYCQQSYGTPYTFGQGTKVEIKR
B2 was tested, and the “Current blocking (Average % inhibition), IonWorks Quattro, 223 nM antibody” value (shortened to “Current blocking (Average % inhibition)”) [5] was 33.6%, the OD450 [6] was 1 to 2 od and the OD450 [7] was 2 to 4 od. The OD450 [8] was 2 to 4 od and the binding result [9] was “binds”.

B3: H4H448B (antibody, V domains shown)
VH: EVQLVQSGGGLVQPGRSLRLSCAASGFTFDDYAMHWVRQAPGKGLEWVSGISWNSGSIGYADSVKGRFTISRDNAKNSLYLQMNSLRAEDTALYYCAKDIEYYDILTGYYSYYIMDVWGQGTTVTVSS
VL: B2 VL with Q3R, D28N, R30N, T31S, Q38L, Y49F, G93S, T94S, Y96F
Binder B3 has an OD450 [10] of under 0.2 od, an OD450 [8] of 2 to 4 od and a Kd [11] of 21.9 nM. For the same binder, the t1/2 [11] was 1.8 min and the binding result [12] was “no binding”.

B4: H1H1003B (antibody, V domains shown)
VH: QVQLVESGGGLVQPGGSLRLSCAASGFTLSSYAMSWVRQAPGKGLEWVSTISGSGIIYYTDSVKGRFTISRDSSKNTLYLQMNSLRVEDTAVYYCAKDRGAAAGAFDYWGQGTLVTVSS
VL: AIQLTQSPDSLAVSLGERATIKCKSSQSVLYSSNNKNYLAWYQQKPGQPPNLLIYWASTRESGVPDRFSGSGSGTDFTLTISSLQAEDVAVYYCQQYFSFGQGTKVDIKR
With B4 the “Current blocking (Average % inhibition)” value [5] was 32.5%, the OD450 [6] was 2 to 4 od and the OD450 [7] was 2 to 4 od. The OD450 [8] was 2 to 4 od, the binding result [13] was “binds” and the Kd [14] was 2.64 nM. For the same binder, the t1/2 [14] was 27.8 min and the “% Binding Nav1.7” value [15] was 1.3%.

B5: H4H471B (antibody, V domains shown)
VH: EVQLVESGGGLVKPGGSLRLSCAASGVTFSDYYMTWIRQAPGKGLEWVSYISTDGRTIYYADSVKGRFTISRDNAKNSLYLQMNNLRAEDTAVYYCARGVDSDDYEDFYSYYDMDVWGQGTTVTVSS
VL: DIQMTQSPSSLSASVGDRVTITCRASQGISNYLAWFQQKPGKAPKSLIYAASSLQGGVPSRFSGSGSGTDFTLTISSLQPEDFATYYCQQYNSYPLTFGGGTKVEIKR
B5 was tested, and the OD450 [16] was under 0.2 od, the “Current blocking (Average % inhibition)” value [5] was 57% and the OD450 [2] was 2 to 4 od. It also gave an OD450 [4] of 2 to 4 od.

B6: H1M683N (antibody, V domains shown)
VH: QVQLVESGGGVVQPGRSLSLSCAASGFTFSNYGMHWVRQAPGKGLEWVAAISYDGNTKYYVDSVKGRFTISRDNSKNTLYLQMNSLRGEDMAVYYCVGARPGYDHYGMDVWGQGTTVTVSS
VL: DIQLTQSPSFLSTSVGDRVTITCWASQGISSYLAWYQQKPGKAPNLLIYTASTLQSGVPSRFSGSGSGTEFTLTISSLQPEDFATYYCQQLNSYPYTFGQGTKLEIK
notes: Loop specificity 2-1 (paddle)
In the case of B6, the OD450 [17] is reported as 1 to 2 od, the OD450 [18] is reported as 0.2 to 1 od and the binding result [14] is reported as “no binding”. For the same binder, the Kd [19] was 9.4 nM and the t1/2 [19] was 18 min.
